T1: bovine heart E2 of the native bovine PDC core (bE2/E3BP) (bovine, UniProt P11180 87-647)
T1 construct: E2 (dihydrolipoamide acetyltransferase) of bovine heart pyruvate dehydrogenase complex, native; also called E2 of bE2/E3BP; source: purified from bovine heart PDC (sucrose gradients in 2 M NaCl), as bE2/E3BP core
T1 sequence (looked up): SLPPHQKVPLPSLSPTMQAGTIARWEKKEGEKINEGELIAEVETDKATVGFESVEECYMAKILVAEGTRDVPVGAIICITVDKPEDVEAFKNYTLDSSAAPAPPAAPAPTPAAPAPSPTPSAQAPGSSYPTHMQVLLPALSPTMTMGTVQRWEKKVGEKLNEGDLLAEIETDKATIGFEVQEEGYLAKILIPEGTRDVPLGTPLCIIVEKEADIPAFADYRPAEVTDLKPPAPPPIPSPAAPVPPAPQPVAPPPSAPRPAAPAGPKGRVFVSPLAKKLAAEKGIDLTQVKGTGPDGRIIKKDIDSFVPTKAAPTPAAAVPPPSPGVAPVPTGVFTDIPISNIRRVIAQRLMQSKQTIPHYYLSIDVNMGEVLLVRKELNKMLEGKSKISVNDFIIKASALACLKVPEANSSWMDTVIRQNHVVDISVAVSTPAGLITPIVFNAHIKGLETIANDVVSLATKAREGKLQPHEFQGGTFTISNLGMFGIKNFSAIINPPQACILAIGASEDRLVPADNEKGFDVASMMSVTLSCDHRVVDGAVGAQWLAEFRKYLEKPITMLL


Experiments:
[1] = biological target: the molecule itself; assay: AUC; sedimentation velocity of the cores; 76-306 nM rE2/E3BP, 60-260 nM rE2, 116-730 nM tE2/E3BP; PEBS100 buffer (2 mM EDTA, 100 mM NaCl, 50 mM KH2PO4, pH 7.5); 20,000 rpm, 4 °C; interference optics
[2] = biological target: T1, bovine heart E2 of the native bovine …; assay: SAXS; beamline X33 EMBL/DESY; PEBS100 buffer; 830.9 nM rE2/E3BP and 183.1 nM bE2/E3BP used for ab initio modelling (GASBOR, icosahedral symmetry); conditions: both partners purified

binding result [2] | Binder | stoichiometry N [1]
– | recombinant full-length E2-only PDC core (rE2); dihydrolipoamide acetyltransferase of human pyruvate dehydrogenase complex (enzyme, UniProt P10515 87-647, looked up, E2 (dihydrolipoamide acetyltransferase) of the human pyruvate dehydrogenase complex, full-length recombinant; monomer printed as 61 kDa; 60-mer mass from composition 3,741,780 Da; Cultures were supplemented with lipoic acid on induction; source: E. coli BL21 star (DE3), pET14b, purified (zinc chelate, anion exchange, gel filtration); not shown: His tag, N-terminal, kept; copies: 60) SLPPHQKVPLPSLSPTMQAGTIARWEKKEGDKINEGDLIAEVETDKATVGFESLEECYMAKILVAEGTRDVPIGAIICITVGKPEDIEAFKNYTLDSSAAPTPQAAPAPTPAATASPPTPSAQAPGSSYPPHMQVLLPALSPTMTMGTVQRWEKKVGEKLSEGDLLAEIETDKATIGFEVQEEGYLAKILVPEGTRDVPLGTPLCIIVEKEADISAFADYRPTEVTDLKPQVPPPTPPPVAAVPPTPQPLAPTPSAPCPATPAGPKGRVFVSPLAKKLAVEKGIDLTQVKGTGPDGRITKKDIDSFVPSKVAPAPAAVVPPTGPGMAPVPTGVFTDIPISNIRRVIAQRLMQSKQTIPHYYLSIDVNMGEVLLVRKELNKILEGRSKISVNDFIIKASALACLKVPEANSSWMDTVIRQNHVVDVSVAVSTPAGLITPIVFNAHIKGVETIANDVVSLATKAREGKLQPHEFQGGTFTISNLGMFGIKNFSAIINPPQACILAIGASEDKLVPADNEKGFDVASMMSVTLSCDHRVVDGAVGAQWLAEFRKYLEKPITMLL | 60
binds | bovine heart E3BP of the native bovine PDC core (bE2/E3BP) (natural protein, UniProt P22439 54-501, looked up, also called E3BP of bE2/E3BP; source: purified from bovine heart PDC (sucrose gradients in 2 M NaCl), as bE2/E3BP core) ADPIKILMPSLSPTMEEGNIVKWLKKEGEAVSAGDALCEIETDKAVVTLDASDDGILAKIVVAEGSKNIRLGSLIGLLVEEGEDWKHVEIPKDTGPPPPAAKPSVPPPSAEPQIATPVKKEHPPGKVQFRLSPAARNILEKHALDANQGTATGPRGIFTKEDALKLVQLKQTGKITEPRPTAALPTTPAAPLPPQAAATASYPRPMIPPVSTPGQPNVEGTFTEIPASNIRRVIAKRLTESKSTIPHAYATTDCDLGAVLTARQNLVRDDIKVSVNDFIIKAAAVTLKQMPNVNASWDGEGAKQLPSIDISVAVATDRGLITPVIKDAAAKGLQEIADSVKALSKKARDGKLLPEEYQGGSFSISNLGMFGIDEFTAVINPPQACILAVGRFRPVLKLTQDEEGNAQLQQRQLITVTMSSDSRVVDDELATRFLESFKANLENPLRLA | –

Reference: publication PMC2880790, “Solution Structure and Characterisation of the Human Pyruvate Dehydrogenase Complex Core Assembly” (Journal of Molecular Biology, 2010)
